For experiment [1], the target named is human plasma fibronectin (human) (UniProt P02751). The experiment can be described thus: ELISA on coated antigen, background subtracted. On the technique in general: ELISA stands for enzyme-linked immunosorbent assay.
Experiment [2] has as its target large isoform of tenascin-C (UniProt P24821). The experiment can be described thus: ELISA on coated antigen, background subtracted.

large isoform of tenascin-C, sequence (P24821 23-2201): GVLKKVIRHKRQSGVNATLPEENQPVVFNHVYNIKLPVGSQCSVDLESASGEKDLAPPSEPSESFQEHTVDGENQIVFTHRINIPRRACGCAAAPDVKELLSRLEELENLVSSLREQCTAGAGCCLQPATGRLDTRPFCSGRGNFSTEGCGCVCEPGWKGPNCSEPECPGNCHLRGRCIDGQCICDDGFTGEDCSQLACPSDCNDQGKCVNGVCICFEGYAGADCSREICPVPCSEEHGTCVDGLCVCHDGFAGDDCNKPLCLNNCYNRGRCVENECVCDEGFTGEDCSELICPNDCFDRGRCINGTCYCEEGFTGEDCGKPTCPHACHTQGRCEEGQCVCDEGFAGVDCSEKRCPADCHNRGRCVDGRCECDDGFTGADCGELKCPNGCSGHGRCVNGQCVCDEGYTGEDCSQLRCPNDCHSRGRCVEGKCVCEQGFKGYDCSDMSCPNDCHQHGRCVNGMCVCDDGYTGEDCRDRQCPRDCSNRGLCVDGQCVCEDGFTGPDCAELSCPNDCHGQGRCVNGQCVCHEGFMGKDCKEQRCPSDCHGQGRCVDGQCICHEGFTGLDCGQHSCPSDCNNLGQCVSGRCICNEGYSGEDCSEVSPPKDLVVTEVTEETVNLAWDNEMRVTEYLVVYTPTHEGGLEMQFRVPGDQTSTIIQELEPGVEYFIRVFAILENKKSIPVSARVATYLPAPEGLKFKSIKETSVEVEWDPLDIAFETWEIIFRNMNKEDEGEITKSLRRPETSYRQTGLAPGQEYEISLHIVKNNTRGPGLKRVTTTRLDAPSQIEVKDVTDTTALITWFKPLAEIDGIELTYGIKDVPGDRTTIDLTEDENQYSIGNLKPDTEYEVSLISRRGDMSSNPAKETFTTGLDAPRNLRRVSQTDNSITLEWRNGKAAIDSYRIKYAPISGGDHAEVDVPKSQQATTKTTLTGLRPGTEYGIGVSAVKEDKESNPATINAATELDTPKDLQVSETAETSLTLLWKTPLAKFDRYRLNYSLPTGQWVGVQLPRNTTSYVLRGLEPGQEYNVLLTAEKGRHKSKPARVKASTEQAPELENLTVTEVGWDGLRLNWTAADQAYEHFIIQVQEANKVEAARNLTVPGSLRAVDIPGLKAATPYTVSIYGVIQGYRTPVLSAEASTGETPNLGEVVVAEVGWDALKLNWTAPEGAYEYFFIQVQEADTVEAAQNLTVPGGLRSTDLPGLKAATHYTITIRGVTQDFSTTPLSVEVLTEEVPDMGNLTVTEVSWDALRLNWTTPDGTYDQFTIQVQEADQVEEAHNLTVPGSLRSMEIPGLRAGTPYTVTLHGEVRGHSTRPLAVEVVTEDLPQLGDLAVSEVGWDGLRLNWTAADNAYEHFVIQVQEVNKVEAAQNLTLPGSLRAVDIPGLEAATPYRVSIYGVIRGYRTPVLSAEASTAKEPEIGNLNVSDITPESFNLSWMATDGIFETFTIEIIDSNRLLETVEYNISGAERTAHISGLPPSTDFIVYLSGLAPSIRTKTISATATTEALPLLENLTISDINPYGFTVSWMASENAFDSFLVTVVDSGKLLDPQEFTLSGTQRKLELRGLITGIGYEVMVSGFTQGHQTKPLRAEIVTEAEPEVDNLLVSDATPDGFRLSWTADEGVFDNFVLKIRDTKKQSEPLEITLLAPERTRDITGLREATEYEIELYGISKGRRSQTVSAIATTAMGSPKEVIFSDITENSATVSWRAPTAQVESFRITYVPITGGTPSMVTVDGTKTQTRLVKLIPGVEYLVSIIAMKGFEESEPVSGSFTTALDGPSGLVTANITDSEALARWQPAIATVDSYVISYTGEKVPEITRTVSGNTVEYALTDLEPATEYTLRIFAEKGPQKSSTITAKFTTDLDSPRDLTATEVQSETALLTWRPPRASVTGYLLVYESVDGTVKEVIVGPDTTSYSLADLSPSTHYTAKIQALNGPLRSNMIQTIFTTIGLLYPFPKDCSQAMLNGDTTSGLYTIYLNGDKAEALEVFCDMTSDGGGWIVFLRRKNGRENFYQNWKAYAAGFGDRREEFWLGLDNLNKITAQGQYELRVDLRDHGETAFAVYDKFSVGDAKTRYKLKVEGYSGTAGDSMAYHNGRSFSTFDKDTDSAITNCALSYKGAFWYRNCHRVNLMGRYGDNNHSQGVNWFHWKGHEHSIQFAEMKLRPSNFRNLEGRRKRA

B1: scFv CGS-1 (scFv, V domains shown)
VH: QVQLVESGGGLVQPGGSLRLSCAVSGFTFSSYAMSWVRQAPGKGLEWVSAISGSGGSTYYADSVKGRFTISRDNSKNTLYLQMNSLRAEDTAVYYCARSLPKWGQGTLVTVSR
VL: SSELTQDPAVSVALGQTVRITCQGDSLRSYYASWYQQKPGQAPVLVTYGKNNRPSGIPDRFSGSSSGNTASLTITGAQAEDEADYYCNSSPVVLNGVVFGGGTKLTVL
In the case of B1, the OD at 405 nm worked out at 0.07 OD 405 nm in experiment [1] and 0.01 OD 405 nm in experiment [2].

The record behind these values is patent US8703143.
